Experimental data reported in US12606635B2, “Glypican-2-binding moieties, chimeric antigen receptors and uses thereof” (Nanjing Legend Biotech Co., Ltd., priority 2020, dated 2026).

Tests used:
[1] = system: human neuroblastoma cell line SH-SY5Y; experiment: In vitro cytotoxicity assay (LDH), SH-SY5Y; type: cell-based; details: 1:1 effector to target ratio, FIG. 8B
Procedure: (§1) The pre-activated T cells were transduced with lentivirus stock in the presence of […] polybrene and 300 IU/mL IL-2. T cells and lentivirus were centrifuged at 1000 g, 32° C. for 1 h and placed in humidified cell culture incubator for transgene expression under suitable conditions. On day 5 or day 7 or day 10 post-transduction, transduced T cells were harvested and co-incubated with tumor cells at an effector (CAR T) to target cell ratio of 10:1 or 5:1 or 2:1 or 1:1 or 0.2:1 for 20 hours. Target cells were human neuroblastoma cell line SH-SY5Y (ATCC, #CRL-2266), human neuroblastoma cell line IMR-32 cells (ATCC, #CCL-127), or human epidermoid carcinoma cell line A-431 (ATCC, #CRL-1555). To assay the cytotoxicity of CAR T cells on tumor cells, the Cytotoxicity Detection Kit (LDH) (Roche, #11644793001) assay reagents were prepared according to manufacturer's protocol. Reaction mix was added to the cell-free supernatant of each sample to detect the LDH released from cells. Optical densities at OD492 nm and OD650 nm were measured by PHERStar Microplate Reader. Baseline LDH released from the target cell in the absence of effector cells and effector cell in the absence of target cells were subtracted from the total LDH amount. The target maximum release was obtained by adding Triton-X100 at a final concentration of 1% to target cells in the absence of effector cells at the time when the cytotoxicity assays initiated. Supernatant from target cells in the absence of effector cells was used for target minimum release. The specific cytotoxicity was calculated by the formula: % Target cell lysis=100*[(OD CAR T cell+Target cell)−(OD CAR T cell)−(OD Target cell)+(OD Buffer background)]/(OD Target Maximum release−OD Target Minimum release).
(§2) On day 5 or day 8 or day 10 post-transduction, transduced T cells were harvested and co-incubated with tumor cells at an effector (CAR T) to target cell ratio of 10:1 or 1:1 or 0.2:1 for 20 hours. To assay the cytotoxicity of CAR T cells on tumor cells, the Cytotoxicity Detection Kit (LDH) (Roche, #11644793001) was added to the culture supernatant and the specific cytotoxicity for each CAR T cell construct was measured as described in Example 6.

[2] = system: IMR-32; experiment: IFNγ release in co-culture with IMR-32; type: cell-based, human; details: Example 7, co-culture with IMR-32, FIG. 8D-8F
Excerpt: (§3) In addition to the cytotoxicity data above, supernatants from the in vitro co-culture assays were also collected to assess CAR T cells-induced cytokine release, e.g., release of interferon gamma (i.e., IFNγ), as another indicator of cytotoxicity, was quantified using a HTRF human IFNγ AlphaLISA kit (Perkin Elmer, #62HIFNGPEH) per manufacturer's instruction. […] No significant cytokine release were detected against GPC2-negative cell line A-431.
(§4) Supernatants from the in vitro co-culture assays were collected to assess CAR T cells-induced cytokine release, e.g., interferon gamma (i.e., IFNγ) release as described in Example 6. […] IFNγ was not induced in GPC2-negative A-431 cells. […] Cytokine release data was consistent with the in vitro cytotoxicity data.

[3] = system: SH-SY5Y; experiment: IFNγ release in co-culture with SH-SY5Y; type: cell-based, human; details: Example 7, co-culture with SH-SY5Y, FIG. 8D-8F
Excerpt: as §3, §4

[4] = system: human neuroblastoma cell line IMR-32; experiment: In vitro cytotoxicity assay (LDH), IMR-32; type: cell-based; details: 1:1 effector to target ratio, FIG. 8B
Procedure: as §1, with “Supernatant from target cells in the absence of effector cells was used for target minimum release.” left out
as §2

B1: CAS71529VH5-BBz: humanized VHH anti-GPC2 CAR (4-1BB, CD3ζ), SEQ ID NO: 222; tested as CAR T cells (protein)
chain: MALPVTALLLPLALLLHAARPEVQLVESGGGLVQPGGSLRLSCAVSEYRYSSRYCMGWFRQAPGKGLEGVSAIDSNGSADYVDSVKGRFTISKDNSKNTLYLQMNSLRAEDTAVYYCAADHLAYDCYSGATSVFRYWGQGTLVTVSSTTTPAPRPPTPAPTIASQPLSLRPEACRPAAGGAVHTRGLDFACDIYIWAPLAGTCGVLLLSLVITLYCKRGRKKLLYIFKQPFMRPVQTTQEEDGCSCRFPEEEEGGCELRVKFSRSADAPAYKQGQNQLYNELNLGRREEYDVLDKRRGRDPEMGGKPRRKNPQEGLYNELQKDKMAEAYSEIGMKGERRRGKGHDGLYQGLSTATKDTYDALHMQALPPR
modifications: expressed in CAR T cells; CAS71529VH5-BBz
cytotoxicity against SH-SY5Y [1]: less than 30%
IFNγ release [2]: high levels of IFNγ
IFNγ release [3]: high levels of IFNγ
cytotoxicity against IMR-32 [4]: less than 30%
